This is an account of results in PMC7116205.

Sequence of VAMP2 (1-116) (mouse) (P63044 other isoform, or with tags, fused parts or gaps): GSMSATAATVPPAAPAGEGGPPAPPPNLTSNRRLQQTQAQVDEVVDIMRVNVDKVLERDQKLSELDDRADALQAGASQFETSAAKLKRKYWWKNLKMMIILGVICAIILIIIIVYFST
Sequence of syntaxin 1A 1-288 (rat) (P32851 whole entry T251I): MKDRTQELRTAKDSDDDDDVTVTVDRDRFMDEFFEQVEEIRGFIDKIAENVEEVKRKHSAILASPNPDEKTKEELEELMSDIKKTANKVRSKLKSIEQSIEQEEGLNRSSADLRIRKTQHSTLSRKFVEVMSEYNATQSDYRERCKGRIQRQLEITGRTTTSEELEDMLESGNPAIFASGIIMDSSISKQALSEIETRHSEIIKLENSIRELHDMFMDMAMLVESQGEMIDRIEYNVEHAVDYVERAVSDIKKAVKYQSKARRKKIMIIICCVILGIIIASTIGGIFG

On to CpxII A40BPA (natural protein), for which the share of the cross-links that stay SDS sensitive (not in SDS-resistant cis v/t-SNARE complexes) after Ca2+ with VAMP2 (1-116) (mouse) came out at 74%. CpxII H52BPA (natural protein) had a share of the cross-links that are SDS sensitive (not in SDS-resistant cis v/t-SNARE complexes) after Ca2+, unboiled samples with syntaxin 1A 1-288 (rat) of 14%.
